What was measured:
[1] = target: ATP synthase from mitochondria of Zea mays (Z. mays (endogenous in mitochondria)); test: single particle electron microscopy
[2] = target: Complex III2 from potato (potato)

| stoichiometry N [1] | stoichiometry N [2] | Substance |
| --- | --- | --- |
| 2 | – | ATP synthase from mitochondria of Zea mays (complex) |
| – | 2 | Complex I from potato |

Source: article PMC2780661
